Experimental findings from patent US20120328599A1 are described below.

For test [1], the target named is FGFR1-RE kinase domain (R577E mutant, aa 458-765) (human) (UniProt P11362).
Test [2] addresses wt-FGFR1 kinase domain (aa 458-765) (human) (UniProt P11362).

In test [1], “FGFR1-RE kinase domain (R577E mutant, aa 458-765) (from UniProt P11362) (enzyme)” gave an in vitro trans phosphorylation of purified kinase domains with ATP and Mg2+, native gel of less than 30 min. For “wt-FGFR1 kinase domain (aa 458-765) (from UniProt P11362) (enzyme)”, the in vitro trans phosphorylation of purified kinase domains with ATP and Mg2+, native gel in test [2] was less than 10 min.
